{
  "source": "paper doi:10.1101/2023.02.27.530186",
  "about": "(bioRxiv, 2023)",
  "key": {"cryo-EM structure": {"biological_target": "the molecule itself", "experiment": "cryo-EM structure"}, "[1]": {"biological_target": "T3 SAMase, wild type, C-terminally His6-tagged (bacteriophage T3) (UniProt P07693)", "experiment": "SEC-SAXS"}, "[2]": {"biological_target": "T3 SAMase E68Q/Q94A, C-terminally His6-tagged (bacteriophage T3) (UniProt P07693)", "experiment": "SEC-SAXS"}, "[3]": {"biological_target": "T3 SAMase, wild type, C-terminally His6-tagged (bacteriophage T3) (UniProt P07693)", "experiment": "cryo-EM structure"}, "[4]": {"biological_target": "T3 SAMase E68Q/Q94A, C-terminally His6-tagged (bacteriophage T3) (UniProt P07693)", "experiment": "mass photometry"}},
  "data": [
    {"binder": "MetK, SAM synthase (methionine adenosyltransferase) of E. coli, endogenous (enzyme, UniProt P0A817 1-384, looked up) MAKHLFTSESVSEGHPDKIADQISDAVLDAILEQDPKARVACETYVKTGMVLVGGEITTSAWVDIEEITRNTVREIGYVHSDMGFDANSCAVLSAIGKQSPDINQGVDRADPLEQGAGDQGLMFGYATNETDVLMPAPITYAHRLVQRQAEVRKNGTLPWLRPDAKSQVTFQYDDGKIVGIDAVVLSTQHSEEIDQKSLQEAVMEEIIKPILPAEWLTSATKFFINPTGRFVIGGPMGDCGLTGRKIIVDTYGGMARHGGGAFSGKDPSKVDRSAAYAARYVAKNIVAAGLADRCEIQVSYAIGVAEPTSIMVETFGTEKVPSEQLTLLVREFFDLRPYGLIQMLDLLHPIYKETAAYGHFGREHFPWEKTDKAQLLRDAAGLK", "values": [
      {"measurement": "stoichiometry N", "setting": "cryo-EM structure", "result": 4},
      {"measurement": "stoichiometry N (SAMase per MetK subunit (4:4))", "setting": "[1]", "result": 1},
      {"measurement": "stoichiometry N (SAMase per MetK subunit (4:4))", "setting": "[2]", "result": 1},
      {"measurement": "stoichiometry N (SAMase per MetK subunit (4:4))", "setting": "[3]", "result": 1},
      {"measurement": "stoichiometry N (SAMase per MetK subunit (4:4))", "setting": "[4]", "result": 1}
    ]}
  ]
}
